Test results as given in paper PMC2885149.

Target: adeno-associated virus serotype 3B (AAV-3B) capsid protein subunit (adeno-associated virus serotype 3B)
Assay: crystal structure

Substance: adeno-associated virus serotype 3B (AAV-3B) capsid protein subunit (natural protein)
- stoichiometry N: 60
